Measured values reported in patent US20160176924A1, “MODIFIED PEPTIDES AS POTENT INHIBITORS OF THE PSD-95/NMDA RECEPTOR INTERACTION” (priority 2008, published 2016).

T1: HIS-PDZ2 protein (PSD-95 PDZ2, residues 155-249, with tag …) (human), P78352
T1 chain: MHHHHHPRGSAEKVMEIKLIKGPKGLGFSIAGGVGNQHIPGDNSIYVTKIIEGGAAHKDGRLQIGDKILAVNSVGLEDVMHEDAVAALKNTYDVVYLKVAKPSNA


Assays:
[1] = biological target: T2, HIS-PDZ1-2 protein (PSD-95 PDZ1-2 tandem, residues 61-249, with tag …) (human), P78352; test: ITC; monomeric IETAV, no linker
[2] = biological target: T2, HIS-PDZ1-2 protein (PSD-95 PDZ1-2 …); test: FP competition, fluorescent NR2B probe
[3] = biological target: T1, HIS-PDZ2 protein (PSD-95 PDZ2, residues …); test: FP competition, fluorescent NR2B probe
[4] = biological target: T3, HIS-PDZ1 protein (PSD-95 PDZ1, residues 61-151, with tag …) (human), P78352; test: FP competition, fluorescent NR2B probe
[5] = biological target: T3, HIS-PDZ1 protein (PSD-95 PDZ1, residues …); test: FP competition, fluorescent NR2B probe; truncation series of NR2B peptide (1)
[6] = biological target: T1, HIS-PDZ2 protein (PSD-95 PDZ2, residues …); test: as above

Row | Binder | Kd [1] [nM] | Ki [2] [µM] | Ki [3] [µM] | Ki [4] [µM] | fold increase in Ki [5] [fold] | fold increase in Ki [6] [fold]
1 | IETAV (modifications not checked) [IETAV (82)] | 1900 | 2.5 | 1.7 | – | – | –
2 | ESDV (modifications not checked) [ESDV (8)] | – | 28 | 28 | 56 | 3.1 | 6.8
